Source: US20250339531A1 (FRED HUTCHINSON CANCER CENTER, published 2025)

Key:
[1] = molecular target: T1, Signal transducer and activator of transcription 1-alpha/beta (Homo sapiens, UniProt P42224 2-750); assay: anti-FLAG co-IP and western of truncation series in MB135 cells (FIG. 27A)
T1 construct: also called STAT1
T1 sequence (looked up): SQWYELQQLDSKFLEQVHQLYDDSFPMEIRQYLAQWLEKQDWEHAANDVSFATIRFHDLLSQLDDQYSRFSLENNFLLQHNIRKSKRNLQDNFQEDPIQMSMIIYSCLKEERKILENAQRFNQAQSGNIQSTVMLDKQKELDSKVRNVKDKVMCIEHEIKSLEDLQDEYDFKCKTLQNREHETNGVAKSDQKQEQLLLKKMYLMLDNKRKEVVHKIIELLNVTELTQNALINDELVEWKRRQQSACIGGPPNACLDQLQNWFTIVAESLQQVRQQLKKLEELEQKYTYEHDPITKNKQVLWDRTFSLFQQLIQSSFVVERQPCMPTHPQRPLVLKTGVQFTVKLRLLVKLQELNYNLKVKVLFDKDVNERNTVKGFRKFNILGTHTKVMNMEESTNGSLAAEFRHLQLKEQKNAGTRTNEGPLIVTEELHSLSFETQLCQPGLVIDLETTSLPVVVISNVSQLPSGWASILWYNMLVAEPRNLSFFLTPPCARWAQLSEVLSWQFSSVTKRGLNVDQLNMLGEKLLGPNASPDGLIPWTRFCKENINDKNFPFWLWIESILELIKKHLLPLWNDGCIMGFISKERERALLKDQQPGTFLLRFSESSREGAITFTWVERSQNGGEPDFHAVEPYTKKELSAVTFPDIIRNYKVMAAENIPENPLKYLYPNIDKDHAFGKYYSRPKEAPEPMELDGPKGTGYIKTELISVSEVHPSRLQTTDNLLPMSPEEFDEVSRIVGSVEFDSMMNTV

[2] = molecular target: T2, Proteasome subunit alpha type (Homo sapiens); assay: anti-FLAG co-IP LC-MS, exp 4, +Dox +IFNG
T2 construct: also called PSMA6

[3] = molecular target: T3, Immunoglobulin kappa variable 2-40 (Homo sapiens); assay: anti-FLAG co-IP LC-MS, exp 4, +Dox +IFNG
T3 construct: also called IGKV2-40
T3 sequence (A0A087WW87 20-121): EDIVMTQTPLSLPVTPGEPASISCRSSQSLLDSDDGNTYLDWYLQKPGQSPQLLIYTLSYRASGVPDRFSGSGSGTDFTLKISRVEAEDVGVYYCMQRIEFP

[4] = molecular target: T1, Signal transducer and activator of …; assay: anti-FLAG co-IP LC-MS, exp 4, +Dox +IFNG
[5] = molecular target: T4, Uncharacterized protein (Fragment) (Homo sapiens); assay: anti-FLAG co-IP LC-MS, exp 4, +Dox +IFNG
T4 construct: also called NA (Homology to TAP2)

Row | Binder | binding result [1] | PSMs [2] [PSMs] | PSMs [3] [PSMs] | PSMs [4] [PSMs] | PSMs [5] [PSMs]
1 | iDUX4aa154-271 (other, not shown: N-terminal 3×FLAG tag and NLS) GRAPAQAGGLCSAAPGGGHPAPSWVAFAHTGAWGTGLPAPHVPCAPGALPQGAFVSQAARAAPALQPSQAAPAEGISQPAPARGDFAYAAPAPPDGALSHPQAPRWPPHPGKSREDRD | no binding | – | – | – | –
2 | i3XFLAG-NLS-CTDaa154-419mL1dL2 (other, also called longCTDmL1dL2; longCTDmL1DL2) MDYKDHDGDYKDHDIDYKDDDDKPPKRMRREPKKKRKVGRAPAQAGGLCSAAPGGGHPAPSWVAFAHTGAWGTGLPAPHVPCAPGALPQGAFVSQAARAAPALQPSQAAPAEGISQPAPARGDFAYAAPAPPDGALSHPQAPRWPPHPGKSREDRDPQRDGLPGPCAVAQPGPAQAGPQGQGVLAPPTSQGSPWWGWGRGPQVAGAAWEPQAGAAPPPQPAPPDASASARQGQMQGIPAPSQALQEPAPWSALPCGLLAAEAAASPEFLQQAQPLLETEAPGELEASEEAASLEAPLSEEEYRA | – | 4 | 1 | 18 | 2
